# Results: patent US20050013808A1, “Nitroreductase enzymes” (priority 2001, published 2005)
# Values joined by “and” are separate entries in the source; they are usually repeats but may differ in a detail not shown here. Equal values may be shown once.
# Experiments:
# [1] = test system: UT5600 cells (NTR−) lysogens; assay: Replica-plate screening of mutant NTR-expressing lysogens on increasing CB1954 (growth score); assay type: cell-based, E. coli; set-up: key to Score: 0: Good growth on all concentrations of CB 1954 = vector; Good growth on 100 and 200, faint on 300, ring of growth on 400 μM; Good growth on 100 and 200, ring growth on 300, none or very faint on 400 μM; Good growth on 100, faint to good on 200, none or very faint on 300 and 400 μM; 4: Good growth on 100 μM, none to ring growth on 200 μM = wild type; Good growth on 50 μM, ring on 100 μM, none on 200, 300 or 400 μM; 6: Faint growth on 50 μM, ring on 100 μM; 7: Good growth on 50 μM, none on 100 μM; 8: Ring growth on 50 μM, none on 100 μM; 9: None or very faint growth on 50 μM, none on 100 μM; 10: None or ring growth on 35 μM; details: for Score: growth of lysogens on agar with kanamycin, IPTG and 0-400 μM CB1954, wild type = 4, higher = more sensitive
# Protocol: The ligation mix was packaged (Stratagene) into lambda bacteriophage particles that were used to infect UT5600 cells (NTR ^−). As a control wild type NTR was also cloned into this vector (JG16C2). Kanamycin resistant lysogens were selected on agar plates ([…] kanamycin) then individually grown overnight in a well of a 96-well plate in LB+Kanamycin. The clones were replica plated on to a series of plates containing Tris-buffered (50 mM, pH 7.5) LB agar with kanamycin, IPTG (0.1 mM) and CB1954 at a concentration of 0, 25, 35, 50, 100, 200, 300 or 400 μM (see FIG. 3). […]
# [2] = test system: UT5600 cells (NTR−) lysogens; assay: Survival curve (colony count) IC50 of CB1954 in NTR-expressing lysogens; assay type: cell-based, E. coli; details: concentration of CB1954 giving 50% reduction in colony number after 36h growth; lysogen expressing the named NTR
# Protocol: To quantify the improvement in NTR activity in the clones in a less subjective way, a few clones were selected for further study by determining their survival curves. The lysogens were grown overnight in LB +kanamycin and diluted to approximately 1 cell per μl based on the OD. In duplicate, 100 μl diluted cells were plated into Tris-buffered LB plates containing kanamycin, IPTG and 0-400 μM CB1954. After 36h growth the number of colonies on each plate were counted and expressed as a percentage of the number present on the plates with no CB1954. Survival curves showing % survival versus concentration of CB 1954 were plotted (see examples in FIG. 7) and the IC50 determined as the concentration of CB 1954 which kills gives a 50% reduction in colony number (Table 3 and FIG. 8). A few clones containing mutations resulting in an enhanced sensitivity to CB 1954 were selected for further study.
Molecule,nitroreductase activity with CB1954 compared with wild-type [1],Score [1],IC50 [2]
F124M (protein) MDIISVALKRHSTKAFDASKKLTPEQAEQIKTLLQYSPSSTNSQPWHFIVASTEEGKARVAKSAAGNYVFNERKMLDASHVVVFCAKTAMDDVWLKLVVDQEDADGRFATPEAKAANDKGRKFMADMHRKDLHDDAEWMAKQVYLNVGNFLLGVAALGLDAVPIEGFDAAILDAEFGLKEKGYTSLVVVPVGHHSVEDFNATLPKSRLPQNITLTEV,substantially greater activity with CB 1954 than the wild-type,9,33 µM
F124T (protein) MDIISVALKRHSTKAFDASKKLTPEQAEQIKTLLQYSPSSTNSQPWHFIVASTEEGKARVAKSAAGNYVFNERKMLDASHVVVFCAKTAMDDVWLKLVVDQEDADGRFATPEAKAANDKGRKFTADMHRKDLHDDAEWMAKQVYLNVGNFLLGVAALGLDAVPIEGFDAAILDAEFGLKEKGYTSLVVVPVGHHSVEDFNATLPKSRLPQNITLTEV,substantially greater activity with CB 1954 than the wild-type,7-9 and 7-8,56 µM and 87 µM
Y68N (protein) MDIISVALKRHSTKAFDASKKLTPEQAEQIKTLLQYSPSSTNSQPWHFIVASTEEGKARVAKSAAGNNVFNERKMLDASHVVVFCAKTAMDDVWLKLVVDQEDADGRFATPEAKAANDKGRKFFADMHRKDLHDDAEWMAKQVYLNVGNFLLGVAALGLDAVPIEGFDAAILDAEFGLKEKGYTSLVVVPVGHHSVEDFNATLPKSRLPQNITLTEV,–,5-7,79 µM
F124W (protein) MDIISVALKRHSTKAFDASKKLTPEQAEQIKTLLQYSPSSTNSQPWHFIVASTEEGKARVAKSAAGNYVFNERKMLDASHVVVFCAKTAMDDVWLKLVVDQEDADGRFATPEAKAANDKGRKFWADMHRKDLHDDAEWMAKQVYLNVGNFLLGVAALGLDAVPIEGFDAAILDAEFGLKEKGYTSLVVVPVGHHSVEDFNATLPKSRLPQNITLTEV,substantially greater activity with CB 1954 than the wild-type,5-7,56 µM
F124Y (protein) MDIISVALKRHSTKAFDASKKLTPEQAEQIKTLLQYSPSSTNSQPWHFIVASTEEGKARVAKSAAGNYVFNERKMLDASHVVVFCAKTAMDDVWLKLVVDQEDADGRFATPEAKAANDKGRKFYADMHRKDLHDDAEWMAKQVYLNVGNFLLGVAALGLDAVPIEGFDAAILDAEFGLKEKGYTSLVVVPVGHHSVEDFNATLPKSRLPQNITLTEV,substantially greater activity with CB 1954 than the wild-type,5-7,66 µM
Y68W (protein) MDIISVALKRHSTKAFDASKKLTPEQAEQIKTLLQYSPSSTNSQPWHFIVASTEEGKARVAKSAAGNWVFNERKMLDASHVVVFCAKTAMDDVWLKLVVDQEDADGRFATPEAKAANDKGRKFFADMHRKDLHDDAEWMAKQVYLNVGNFLLGVAALGLDAVPIEGFDAAILDAEFGLKEKGYTSLVVVPVGHHSVEDFNATLPKSRLPQNITLTEV,–,4-5,108 µM
F124Q (protein) MDIISVALKRHSTKAFDASKKLTPEQAEQIKTLLQYSPSSTNSQPWHFIVASTEEGKARVAKSAAGNYVFNERKMLDASHVVVFCAKTAMDDVWLKLVVDQEDADGRFATPEAKAANDKGRKFQADMHRKDLHDDAEWMAKQVYLNVGNFLLGVAALGLDAVPIEGFDAAILDAEFGLKEKGYTSLVVVPVGHHSVEDFNATLPKSRLPQNITLTEV,substantially greater activity with CB 1954 than the wild-type,8,39 µM
F124A (protein) MDIISVALKRHSTKAFDASKKLTPEQAEQIKTLLQYSPSSTNSQPWHFIVASTEEGKARVAKSAAGNYVFNERKMLDASHVVVFCAKTAMDDVWLKLVVDQEDADGRFATPEAKAANDKGRKFAADMHRKDLHDDAEWMAKQVYLNVGNFLLGVAALGLDAVPIEGFDAAILDAEFGLKEKGYTSLVVVPVGHHSVEDFNATLPKSRLPQNITLTEV,substantially greater activity with CB 1954 than the wild-type,7-9,20 µM and 32 µM
Y68C (protein) MDIISVALKRHSTKAFDASKKLTPEQAEQIKTLLQYSPSSTNSQPWHFIVASTEEGKARVAKSAAGNCVFNERKMLDASHVVVFCAKTAMDDVWLKLVVDQEDADGRFATPEAKAANDKGRKFFADMHRKDLHDDAEWMAKQVYLNVGNFLLGVAALGLDAVPIEGFDAAILDAEFGLKEKGYTSLVVVPVGHHSVEDFNATLPKSRLPQNITLTEV,–,5,105 µM
F124C (protein) MDIISVALKRHSTKAFDASKKLTPEQAEQIKTLLQYSPSSTNSQPWHFIVASTEEGKARVAKSAAGNYVFNERKMLDASHVVVFCAKTAMDDVWLKLVVDQEDADGRFATPEAKAANDKGRKFCADMHRKDLHDDAEWMAKQVYLNVGNFLLGVAALGLDAVPIEGFDAAILDAEFGLKEKGYTSLVVVPVGHHSVEDFNATLPKSRLPQNITLTEV,substantially greater activity with CB 1954 than the wild-type,7-9,36 µM
F124S (protein) MDIISVALKRHSTKAFDASKKLTPEQAEQIKTLLQYSPSSTNSQPWHFIVASTEEGKARVAKSAAGNYVFNERKMLDASHVVVFCAKTAMDDVWLKLVVDQEDADGRFATPEAKAANDKGRKFSADMHRKDLHDDAEWMAKQVYLNVGNFLLGVAALGLDAVPIEGFDAAILDAEFGLKEKGYTSLVVVPVGHHSVEDFNATLPKSRLPQNITLTEV,substantially greater activity with CB 1954 than the wild-type,7-9,41 µM
Y68A (protein) MDIISVALKRHSTKAFDASKKLTPEQAEQIKTLLQYSPSSTNSQPWHFIVASTEEGKARVAKSAAGNAVFNERKMLDASHVVVFCAKTAMDDVWLKLVVDQEDADGRFATPEAKAANDKGRKFFADMHRKDLHDDAEWMAKQVYLNVGNFLLGVAALGLDAVPIEGFDAAILDAEFGLKEKGYTSLVVVPVGHHSVEDFNATLPKSRLPQNITLTEV,–,5-7,81 µM
Y68S (protein) MDIISVALKRHSTKAFDASKKLTPEQAEQIKTLLQYSPSSTNSQPWHFIVASTEEGKARVAKSAAGNSVFNERKMLDASHVVVFCAKTAMDDVWLKLVVDQEDADGRFATPEAKAANDKGRKFFADMHRKDLHDDAEWMAKQVYLNVGNFLLGVAALGLDAVPIEGFDAAILDAEFGLKEKGYTSLVVVPVGHHSVEDFNATLPKSRLPQNITLTEV,–,5-7,96 µM
F124G (protein) MDIISVALKRHSTKAFDASKKLTPEQAEQIKTLLQYSPSSTNSQPWHFIVASTEEGKARVAKSAAGNYVFNERKMLDASHVVVFCAKTAMDDVWLKLVVDQEDADGRFATPEAKAANDKGRKFGADMHRKDLHDDAEWMAKQVYLNVGNFLLGVAALGLDAVPIEGFDAAILDAEFGLKEKGYTSLVVVPVGHHSVEDFNATLPKSRLPQNITLTEV,substantially greater activity with CB 1954 than the wild-type,7,49 µM
F124V (protein) MDIISVALKRHSTKAFDASKKLTPEQAEQIKTLLQYSPSSTNSQPWHFIVASTEEGKARVAKSAAGNYVFNERKMLDASHVVVFCAKTAMDDVWLKLVVDQEDADGRFATPEAKAANDKGRKFVADMHRKDLHDDAEWMAKQVYLNVGNFLLGVAALGLDAVPIEGFDAAILDAEFGLKEKGYTSLVVVPVGHHSVEDFNATLPKSRLPQNITLTEV,substantially greater activity with CB 1954 than the wild-type,7-9,37 µM and 53 µM
